According to patent US20240116985A1, “STAPLED PEPTIDES AND METHODS THEREOF” (priority 2020, published 2024):
One block for each binder: values may come before it. Starred links: 1 amine or outer side, 2 acyl side, 3 side chain; linkers in the order of their positions; H or OH if unused. Positions of bridges follow the written chain, without caps; N, C: chain ends. Non-standard residues stand in square brackets, D forms with d. Primed or numbered codes have the meaning given here. *: point of attachment. PyrS2″ = (S)-3-amino-1-((pent-4-en-1-yloxy)carbonyl)pyrrolidine-3-carboxylic acid (stapling residue), C=CCCCOC(=O)N1CC[C@@](N[*:1])(C(=O)[*:2])C1; B5(4) = 2,2-bis(4-pentenyl)glycine = 2-amino-2-(pent-4-en-1-yl)hept-6-enoic acid (stitching residue), C=CCCCC(CCCC=C)(N[*:1])C(=O)[*:2]; B5(8) = 2,2-bis(4-pentenyl)glycine (2-amino-2-(pent-4-en-1-yl)hept-6-enoic acid, stitching residue), C=CCCCC(CCCC=C)(N[*:1])C(=O)[*:2]; TfeGA = (S)-2-amino-3-((carboxymethyl)(2,2,2-trifluoroethyl)amino)propanoic acid, O=C([C@H](CN(CC(=O)[*:3])CC(F)(F)F)N[*:1])[*:2]; PyrS2 = (S)-3-amino-1-((pent-4-en-1-yloxy)carbonyl)pyrrolidine-3-carboxylic acid, C=CCCCOC(=O)N1CC[C@@](N[*:1])(C(=O)[*:2])C1; B5(12) = 2-amino-2-(pent-4-en-1-yl)hept-6-enoic acid (two olefin side chains), C=CCCCC(CCCC=C)(N[*:1])C(=O)[*:2]; B5(13) = 2-amino-2-(pent-4-en-1-yl)hept-6-enoic acid (two alkene chains), C=CCCCC(CCCC=C)(N[*:1])C(=O)[*:2]; B5(3) = 2,2-bis(4-pentenyl)glycine (stitching residue), C=CCCCC(CCCC=C)(N[*:1])C(=O)[*:2]; B5 = 2-amino-2-(pent-4-en-1-yl)hept-6-enoic acid, C=CCCCC(CCCC=C)(N[*:1])C(=O)[*:2]; 4pentenyl = N-terminal pent-4-enoic acid (acyl cap), C=CCCC(=O)*; Phe(4-COOH) = N[C@@H](Cc1ccc(C(=O)O)cc1)C(=O)O; Phe(2-Cl) = N[C@@H](Cc1ccccc1Cl)C(=O)O; 2Nal = N[C@@H](Cc1ccc2ccccc2c1)C(=O)O; Bta = N[C@@H](Cc1csc2ccccc12)C(=O)O; αAllylPro = C=CC[C@@]1(C(=O)O)CCCN1; tBuAla = CC(C)(C)C[C@H](N)C(=O)O; 3Thi = N[C@@H](Cc1ccsc1)C(=O)O; S8 = C=CCCCCCC[C@](C)(N)C(=O)O; hSer = N[C@@H](CCO)C(=O)O

Key:
[1] = target: beta-catenin (full-length, Uniprot ID P35222) (Homo sapiens (Human)) (UniProt P35222); assay: fluorescence polarization competition, displacement of 5FAM-TCF4 10-53 from full-length beta-catenin
Target sequence in this assay (P35222 2-781 limits assumed): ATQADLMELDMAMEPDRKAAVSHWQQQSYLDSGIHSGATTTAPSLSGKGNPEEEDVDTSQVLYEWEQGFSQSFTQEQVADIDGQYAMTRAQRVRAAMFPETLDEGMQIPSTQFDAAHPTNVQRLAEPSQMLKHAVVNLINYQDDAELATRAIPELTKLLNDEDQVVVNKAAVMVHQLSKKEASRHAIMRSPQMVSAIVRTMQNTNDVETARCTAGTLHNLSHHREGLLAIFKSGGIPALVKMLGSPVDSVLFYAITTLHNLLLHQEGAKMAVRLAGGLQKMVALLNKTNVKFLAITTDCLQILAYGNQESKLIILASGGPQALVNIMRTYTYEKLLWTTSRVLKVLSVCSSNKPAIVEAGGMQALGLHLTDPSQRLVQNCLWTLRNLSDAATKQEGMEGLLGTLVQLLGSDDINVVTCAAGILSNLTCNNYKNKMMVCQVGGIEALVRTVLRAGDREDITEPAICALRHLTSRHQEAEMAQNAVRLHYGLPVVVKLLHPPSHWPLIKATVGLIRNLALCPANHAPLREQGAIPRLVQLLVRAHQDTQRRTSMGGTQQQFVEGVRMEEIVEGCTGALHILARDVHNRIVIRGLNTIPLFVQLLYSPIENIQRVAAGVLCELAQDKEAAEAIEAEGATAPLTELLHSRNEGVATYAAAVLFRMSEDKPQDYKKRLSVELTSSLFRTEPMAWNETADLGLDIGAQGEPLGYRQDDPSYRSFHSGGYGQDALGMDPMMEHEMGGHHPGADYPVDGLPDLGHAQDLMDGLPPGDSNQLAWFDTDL

Bcat-Halo [2] = target: Bcat-Halo (UniProt P35222); assay: NanoBRET in HEK293 cells, Bcat-Halo / TCF4-Luc; absolute IC50
[3] = target: full-length beta-Catenin (Uniprot ID P35222) (Homo sapiens (Human)) (UniProt P35222); assay: fluorescence polarization competition; full-length beta-catenin + 5FAM-TCF4 10-53 probe, peptide titrated
Target sequence in this assay (P35222 2-781 limits assumed): as above

[4] = target: full-length beta-Catenin (Uniprot ID P35222) (Homo sapiens (Human)) (UniProt P35222); assay: FP competition; full-length beta-catenin, competitor 5FAM-TCF4(10-53)
Target sequence in this assay (P35222 whole entry, one chain of several): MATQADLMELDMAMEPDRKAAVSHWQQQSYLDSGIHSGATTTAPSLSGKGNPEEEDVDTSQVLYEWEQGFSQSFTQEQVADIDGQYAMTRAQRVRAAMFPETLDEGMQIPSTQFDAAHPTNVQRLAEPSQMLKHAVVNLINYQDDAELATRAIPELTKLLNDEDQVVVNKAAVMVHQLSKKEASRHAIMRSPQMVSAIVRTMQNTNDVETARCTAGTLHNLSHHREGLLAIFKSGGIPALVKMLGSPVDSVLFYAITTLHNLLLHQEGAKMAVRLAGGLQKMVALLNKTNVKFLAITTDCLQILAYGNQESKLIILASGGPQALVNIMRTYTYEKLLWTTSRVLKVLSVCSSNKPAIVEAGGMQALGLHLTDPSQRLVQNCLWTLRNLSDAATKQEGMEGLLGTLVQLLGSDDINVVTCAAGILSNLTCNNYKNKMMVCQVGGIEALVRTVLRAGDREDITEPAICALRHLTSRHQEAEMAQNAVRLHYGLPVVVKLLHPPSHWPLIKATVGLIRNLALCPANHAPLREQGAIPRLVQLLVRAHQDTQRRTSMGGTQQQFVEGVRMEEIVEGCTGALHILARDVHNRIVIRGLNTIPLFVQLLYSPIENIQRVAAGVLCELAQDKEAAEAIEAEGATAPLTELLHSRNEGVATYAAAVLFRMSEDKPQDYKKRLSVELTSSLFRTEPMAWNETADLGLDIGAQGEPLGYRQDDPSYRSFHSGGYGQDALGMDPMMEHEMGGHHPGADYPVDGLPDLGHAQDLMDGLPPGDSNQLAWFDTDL

[5] = target: full-length beta-Catenin (Uniprot ID P35222) (Homo sapiens (Human)) (UniProt P35222); assay: fluorescence polarization competition; full-length beta-catenin, competitor 5FAM-TCF4(10-53) probe
Bcat-Halo [6] = target: Bcat-Halo (UniProt P35222); assay: NanoBRET in HEK293 cells, Bcat-Halo/TCF4-Luc (competitor TCF4-Luc); IC50
[7] = target: full-length beta-Catenin (Uniprot ID P35222) (Homo sapiens (Human)) (UniProt P35222); assay: fluorescence polarization competition; peptide displaces 5FAM-TCF4(10-53) from full-length beta-catenin
Target sequence in this assay (P35222 2-781 limits assumed): as the sequence (P35222 2-781 limits assumed) above

Bcat-Halo [8] = target: Bcat-Halo (UniProt P35222); assay: NanoBRET in HEK293 cells, Bcat-Halo/TCF4-Luc (competitor TCF4-Luc); percent inhibition at 10 uM peptide
[9] = target: full-length beta-Catenin (Uniprot ID P35222) (Homo sapiens (Human)) (UniProt P35222); assay: fluorescence polarization competition vs 5FAM-TCF4(10-53) on full-length beta-catenin
Target sequence in this assay (P35222 whole entry, one chain of several): as the sequence (P35222 whole entry, one chain of several) above

[10] = target: full-length beta-Catenin (Uniprot ID P35222) (Homo sapiens (Human)) (UniProt P35222); assay: fluorescence polarization competition; peptide titrated against full-length beta-catenin + 5FAM-TCF4(10-53) probe
Target sequence in this assay (P35222 2-781 limits assumed): as the sequence (P35222 2-781 limits assumed) above

[11] = target: full-length beta-Catenin (Uniprot ID P35222) (Homo sapiens (Human)) (UniProt P35222); assay: fluorescence polarization competition against 5FAM TCF4 10-53 probe
Target sequence in this assay (P35222 whole entry, one chain of several): as the sequence (P35222 whole entry, one chain of several) above

Bcat-Halo [12] = target: Bcat-Halo (UniProt P35222); assay: NanoBRET in HEK293 cells, B-cat-Halo/TCF4-Luc, absolute IC50
Bcat-Halo [13] = target: Bcat-Halo (UniProt P35222); assay: NanoBRET Abs IC50; Bcat-Halo/TCF4-Luc engagement in HEK293 cells
[14] = target: full-length beta-Catenin (Uniprot ID P35222) (Homo sapiens (Human)) (UniProt P35222); assay: fluorescence polarization competition; 5FAM-TCF4 10-53 probe on full-length beta-catenin
Target sequence in this assay (P35222 whole entry, one chain of several): as above

[15] = target: full-length beta-Catenin (Uniprot ID P35222) (Homo sapiens (Human)) (UniProt P35222); assay: fluorescence polarization competition, peptide titrated against full-length beta-catenin + 5FAM-TCF4(10-53)
Target sequence in this assay (P35222 2-781 limits assumed): as the sequence (P35222 2-781 limits assumed) above

[16] = target: full-length beta-Catenin (Uniprot ID P35222) (Homo sapiens (Human)) (UniProt P35222); assay: AlphaScreen competition; full-length beta-catenin with biotin-TCF4(10-53) probe as competitor
Target sequence in this assay (P35222 2-781 limits assumed): as above

Bcat-Halo [17] = target: Bcat-Halo (UniProt P35222); assay: NanoBRET in HEK293 cells, Bcat-Halo / TCF4-Luc; peptide at 10 uM; competitor TCF4-Luc
[18] = target: full-length beta-Catenin (Uniprot ID P35222) (Homo sapiens (Human)) (UniProt P35222); assay: fluorescence polarization competition; full-length beta-catenin; competitor displaced: 5FAM-TCF4 10-53
Target sequence in this assay (P35222 2-781 limits assumed): as above

[19] = target: full-length beta-Catenin (Uniprot ID P35222) (Homo sapiens (Human)) (UniProt P35222); assay: fluorescence polarization competition; full-length beta-catenin + 5FAM-TCF4(10-53) probe; peptide titrated
[20] = target: full-length beta-Catenin (Uniprot ID P35222) (Homo sapiens (Human)) (UniProt P35222); assay: fluorescence polarization competition; 10 nM full-length beta-catenin + 10 nM 5FAM-TCF4(10-53) as competitor probe; peptide titrated (top concentration 10 uM)
Bcat-Halo [21] = target: Bcat-Halo (UniProt P35222); assay: NanoBRET Abs IC50 (absolute IC50) in HEK293 cells, Bcat-Halo / TCF4-Luc engagement
[22] = target: full-length beta-Catenin (Uniprot ID P35222) (Homo sapiens (Human)) (UniProt P35222); assay: fluorescence polarization competition; 10 nM full-length beta-catenin; competitor 5FAM-TCF4 10-53 probe
Target sequence in this assay (P35222 whole entry, one chain of several): as the sequence (P35222 whole entry, one chain of several) above

[23] = target: full-length beta-Catenin (Uniprot ID P35222) (Homo sapiens (Human)) (UniProt P35222); assay: fluorescence polarization competition, full-length beta-catenin with 5FAM-TCF4(10-53) probe
Bcat-Halo [24] = target: Bcat-Halo (UniProt P35222); assay: NanoBRET Abs IC50 in HEK293 cells; Bcat-Halo, competitor TCF4-Luc
[25] = target: full-length beta-Catenin (Uniprot ID P35222) (Homo sapiens (Human)) (UniProt P35222); assay: fluorescence polarization competition, full-length beta-catenin with 5FAM-TCF4(10-53) probe as competitor
[26] = target: Bcat-Halo (beta-catenin HaloTag construct expressed in HEK293 cells) (UniProt P35222); assay: NanoBRET in HEK293 cells, percent inhibition at 10 uM peptide; Bcat-Halo with TCF4-Luc as competitor
[27] = target: full-length beta-Catenin (Uniprot ID P35222) (Homo sapiens (Human)) (UniProt P35222); assay: fluorescence polarization competition; displacement of 5FAM-TCF4(10-53) from full-length beta-catenin
Target sequence in this assay (P35222 whole entry, one chain of several): as above

[28] = target: full-length beta-Catenin (Uniprot ID P35222) (Homo sapiens (Human)) (UniProt P35222); assay: fluorescence polarization competition; 10 nM full-length beta-catenin with 10 nM 5FAM-TCF4 (residues 10-53) probe as competitor
[29] = target: full-length beta-Catenin (Uniprot ID P35222) (Homo sapiens (Human)) (UniProt P35222); assay: fluorescence polarization competition; full-length beta-catenin, 5FAM-TCF4(10-53) probe
Bcat-Halo [30] = target: Bcat-Halo (UniProt P35222); assay: NanoBRET Abs IC50; HEK293 cells transfected with B-cat-Halo and TCF4-Luc
[31] = target: full-length beta-Catenin (Uniprot ID P35222) (Homo sapiens (Human)) (UniProt P35222); assay: AlphaScreen competition vs biotin-TCF4(10-53) on full-length beta-catenin
[32] = target: full-length beta-Catenin (Uniprot ID P35222) (Homo sapiens (Human)) (UniProt P35222); assay: FP competition vs 5FAM-TCF4(10-53) probe on full-length beta-catenin
[33] = target: beta-catenin (full-length, Uniprot ID P35222) (Homo sapiens (Human)) (UniProt P35222); assay: fluorescence polarization competition; full-length beta-catenin; competitor 5FAM-TCF4(10-53) probe
Target sequence in this assay (P35222 whole entry, one chain of several): as above

Bcat-Halo, sequence (P35222 whole entry): as the sequence (P35222 whole entry, one chain of several) above
Bcat-Halo (beta-catenin HaloTag construct expressed in HEK293 cells), sequence (P35222 whole entry): as the sequence (P35222 whole entry, one chain of several) above

B1: I-293: Ac-PL3-Asp-Ala-B5-Asp-TfeGA-Ala-Ala-Phe-Val-S8-Phe-BztA-Gln-NH2 (peptide)
peptide: Ac-[αAllylPro]DA[B5(4)]D[TfeGA]AAFV[S8]F[Bta]Q-NH2
modifications: staple 1-4, 4-11
IC50 [1]: 140 nM

B3: I-777 (peptide)
peptide: Ac-[αAllylPro]D[tBuAla][B5(13)]DDAAFN[PyrS2]F[Bta]H-NH2
modifications: staple 1-4, 4-11
EC50 [5]: 5 nM
IC50 (Bcat-Halo [6]): 14400 nM
IC50 [7]: 5 nM
NanoBRET % inh @ 10 uM (Bcat-Halo [8]): 24.5%

B4: I-340 (peptide)
peptide: Ac-[αAllylPro]DA[B5(4)]DDAAFV[S8][Phe(4-COOH)][Bta]Q-NH2
modifications: staple 1-4, 4-11; also: later-eluting staple isomer
IC50 [9]: 5000 nM
EC50 [10]: 5000 nM

B7: I-141 (peptide)
peptide: Ac-[αAllylPro]DA[B5(12)]DEAAFV[S8]F[2Nal]-NH2
modifications: staple 1-4, 4-11
EC50 [16]: 5450 nM

B8: I-696 (peptide)
peptide: Ac-[αAllylPro]DL[B5(8)]DDAAFN[PyrS2″][3Thi][Bta]H-NH2
modifications: staple 1-4, 4-11
NanoBRET % inh @ 10 uM (Bcat-Halo [17]): 17%
IC50 [18]: 5 nM
EC50 [19]: 5 nM

B11: I-677 (peptide)
peptide: Ac-[αAllylPro]D[tBuAla][B5(4)]DEAAFN[S8]F[Bta]Q-NH2
modifications: staple 1-4, 4-11
IC50 [5]: 22 nM
IC50 (Bcat-Halo [24]): 6700 nM
EC50 [25]: 22 nM

B13: I-694 (peptide)
peptide: Ac-[αAllylPro]D[tBuAla][B5(8)]DDAAFN[PyrS2″][3Thi][Bta]H-NH2
modifications: staple 1-4, 4-11
NanoBRET % inh @ 10 uM (Bcat-Halo [17]): 32.7%
IC50 [18]: 5 nM
EC50 [19]: 5 nM

B15: I-295 (peptide)
peptide: Ac-[αAllylPro]DA[B5(4)]D[2Nal]AAFQ[S8]F[Bta]Q-NH2
modifications: staple 1-4, 4-11
EC50 [31]: 1180 nM
EC50 [32]: 5000 nM
IC50 [33]: 5000 nM

Second part, the binder after the results:

IC50 (Bcat-Halo [2]): 11300 nM
IC50 [3]: 18 nM
EC50 [4]: 18 nM
B2: I-1388 (peptide)
peptide: Ac-[αAllylPro]D[tBuAla][B5(4)]DDAAF[hSer][S8]F[Bta]Q-NH2
modifications: staple 1-4, 4-11

IC50 [11]: 234 nM
IC50 (Bcat-Halo [12]): > 20000 nM
B5: I-2599 (peptide)
peptide: 4pentenyl-XD[B5(3)]ADDAAF[PyrS2]L[3Thi][Bta]Q-NH2
modifications: staple 3-10; staple (positions not given here); not fully specified (residue 1, bridges); printed as 4pentenyl-MePro-Asp-B5-Ala-Asp-Asp-Ala-Ala-Phe-PyrS2-Leu-3Thi-BztA-Gln-NH2

IC50 (Bcat-Halo [13]): 15000 nM
IC50 [14]: 6 nM
EC50 [15]: 6 nM
B6: I-818 (peptide)
peptide: Ac-[αAllylPro]D[tBuAla][B5]DDAAFN[PyrS2″][3Thi][Bta][dN]-NH2
modifications: staple 1-4, 4-11

IC50 [20]: 10000 nM
B9: I-1740 (peptide)
peptide: Ac-[αAllylPro]D[tBuAla][B5(4)]NTAAFF[PyrS2″][3Thi][Bta]Q-NH2
modifications: staple 1-4, 4-11

IC50 (Bcat-Halo [21]): 6000 nM
IC50 [22]: 27 nM
EC50 [23]: 27 nM
B10: I-923 (peptide)
peptide: Ac-[αAllylPro]D[tBuAla][B5(3)]D[TfeGA]AAFF[PyrS2″][Phe(2-Cl)][Bta]Q-NH2
modifications: staple 1-4, 4-11

NanoBRET % inh @ 10 uM [26]: 4.3%
IC50 [27]: 56 nM
EC50 [28]: 35 nM
B12: I-846 (peptide)
peptide: Ac-[αAllylPro]D[tBuAla][B5(4)]DLAAFN[PyrS2][3Thi][Bta]Q-NH2
modifications: staple 1-4, 4-11

IC50 [29]: 271 nM
IC50 (Bcat-Halo [30]): > 20000 nM
B14: I-2142 (peptide)
peptide: Ac-[αAllylPro]D[tBuAla][B5]NTAAFN[PyrS2][3Thi][Bta]A-NH2
modifications: staple 1-4, 4-11; also: earlier eluting HPLC isomer
